# Measured values published in paper PMC5778809.
# Biological target: SELENOF’-YFP (human selenoprotein F with Sec changed to Cys, fused to enhanced yellow fluorescence protein) (human) (UniProt O60613)
# Experiment: FRET or BRET; acceptor photobleaching in HEK293T cells co-transfected with pEYFP-N1 and pECFP-C1 constructs; YFP bleached at 515 nm, CFP read before and after; confocal microscope
# UniProt O60613, sequence (O60613 32-165): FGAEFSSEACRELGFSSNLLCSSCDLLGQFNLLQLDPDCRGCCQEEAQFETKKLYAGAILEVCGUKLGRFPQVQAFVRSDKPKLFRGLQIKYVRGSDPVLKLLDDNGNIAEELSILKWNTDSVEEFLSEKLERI
binder,measurement,value
CFP-RDH11 (human retinol dehydrogenase 11 fused to cyan fluorescence protein) (enzyme) VELMFPLLLLLLPFLLYMAAPQIRKMLSSGVCTSTVQLPGKVVVVTGANTGIGKETAKELAQRGARVYLACRDVEKGELVAKEIQTTTGNQQVLVRKLDLSDTKSIRAFAKGFLAEEKHLHVLINNAGVMMCPYSKTADGFEMHIGVNHLGHFLLTHLLLEKLKESAPSRIVNVSSLAHHLGRIHFHNLQGEKFYNAGLAYCHSKLANILFTQELARRLKGSGVTTYSVHPGTVQSELVRHSSFMRWMWWLFSFFIKTPQQGAQTSLHCALTEGLEILSGNHFSDCHVAWVSAQARNETIARRLWDVSCDLLGLPID,FRET energy transfer efficiency,29.2%
same,estimated distance between donor and acceptor (FRET),5.51 nm
